Assay results published in US20110021548A1, “INHIBITORS OF MALT1 PROTEOLYTIC ACTIVITY AND USES THEREOF” (priority 2007, published 2011).
Entries after “also recorded” stand apart in the source; their conditions may differ. code Z = not defined here

Tests used:
Experiment in all cases: MALT1 paracaspase assay (Ac-LSSR-AMC cleavage, AMC release)
MALT1 [1] = target: T1, MALT1 (Homo sapiens, UniProt Q9UDY8); type: biochemical; details: recombinant MALT1 p20 fragment; substrate 100 μM; inhibitor 100 μM
T1 construct: made in house
T1 sequence (Q9UDY8 334-824): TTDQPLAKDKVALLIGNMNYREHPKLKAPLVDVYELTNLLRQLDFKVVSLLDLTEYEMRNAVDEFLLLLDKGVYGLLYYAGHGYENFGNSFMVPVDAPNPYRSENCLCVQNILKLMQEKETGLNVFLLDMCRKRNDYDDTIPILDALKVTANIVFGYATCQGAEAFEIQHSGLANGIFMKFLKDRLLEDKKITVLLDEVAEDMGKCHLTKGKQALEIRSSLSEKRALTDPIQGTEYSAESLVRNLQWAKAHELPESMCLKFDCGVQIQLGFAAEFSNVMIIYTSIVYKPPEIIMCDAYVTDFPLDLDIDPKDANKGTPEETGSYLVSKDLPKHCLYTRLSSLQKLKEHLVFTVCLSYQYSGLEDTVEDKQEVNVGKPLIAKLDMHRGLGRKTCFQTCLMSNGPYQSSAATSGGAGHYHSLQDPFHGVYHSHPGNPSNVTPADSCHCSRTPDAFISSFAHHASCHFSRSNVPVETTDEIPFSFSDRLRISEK

MALT1 [2] = target: T2, MALT1 (Homo sapiens, UniProt Q9UDY8); type: biochemical; details: bio-IP purified MALT1 from HEK-293T cells; substrate 100 μM; inhibitor 100 μM (equimolar)
T2 construct: made in house
T2 sequence (Q9UDY8 2-824): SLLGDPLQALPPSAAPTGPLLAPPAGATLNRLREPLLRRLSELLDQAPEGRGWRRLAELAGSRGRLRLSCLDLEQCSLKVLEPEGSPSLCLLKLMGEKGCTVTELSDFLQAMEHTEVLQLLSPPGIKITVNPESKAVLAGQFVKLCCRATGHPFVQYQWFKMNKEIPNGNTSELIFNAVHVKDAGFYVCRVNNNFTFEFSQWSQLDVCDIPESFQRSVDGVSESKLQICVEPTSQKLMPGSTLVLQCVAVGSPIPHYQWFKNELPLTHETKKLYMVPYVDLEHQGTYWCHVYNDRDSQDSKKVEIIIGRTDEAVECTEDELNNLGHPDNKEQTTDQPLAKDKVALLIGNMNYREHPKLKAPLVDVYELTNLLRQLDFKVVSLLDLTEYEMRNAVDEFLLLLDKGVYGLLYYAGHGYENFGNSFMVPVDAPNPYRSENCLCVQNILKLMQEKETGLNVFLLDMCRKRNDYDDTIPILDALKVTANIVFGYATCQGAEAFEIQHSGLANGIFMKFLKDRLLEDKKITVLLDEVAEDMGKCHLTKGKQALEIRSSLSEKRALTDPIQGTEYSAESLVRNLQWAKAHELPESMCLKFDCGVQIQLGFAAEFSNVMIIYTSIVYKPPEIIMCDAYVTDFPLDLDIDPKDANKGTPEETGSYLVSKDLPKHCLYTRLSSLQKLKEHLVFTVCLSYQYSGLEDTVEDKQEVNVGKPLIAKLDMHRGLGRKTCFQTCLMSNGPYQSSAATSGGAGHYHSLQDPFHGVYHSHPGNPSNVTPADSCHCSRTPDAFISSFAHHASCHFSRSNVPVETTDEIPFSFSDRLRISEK

MALT1 [3] = type: biochemical, human; details: for Inhibition of the MALT1 paracaspase activity by A. thaliana serpin: FIG. 11, several serpin concentrations

Molecule | Inhibition of Ac-LSSR-AMC cleavage by recombinant MALT1 (MALT1 [1]) | Inhibition of Ac-LSSR-AMC cleavage by bio-IP purified MALT1 (MALT1 [2]) | Inhibition of the malt paracaspase activity in small compound screening (MALT1 [3]; FIG. 12, different concentrations) | Inhibition of the MALT1 paracaspase activity by A. thaliana serpin (MALT1 [3])
Z-LSSR-CHO: peptide derivate (tetrapeptide LSSR, SEQ ID NO:1), inhibitor of MALT1 proteolytic activity, purchased from Anaspec ({code Z}-LSSR-aldehyde; reading uncertain; also: printed as Z-LSSR-CHO) | completely blocked | inhibits MALT1 proteolytic activity; also recorded: efficiently blocked | – | –
Cc1ccc(-c2ccc(C=C3C(=O)NC(=S)NC3=O)o2)cc1Cl [Inh03, 5-{[5-(3-chloro-4-methylphenyl)-2-furyl]methylene}-2-thioxodihydro-4,6(1H,5H)-pyrimidinedione] | – | – | Inhibitory effect | –
Z-GASR-CHO: peptide derivate (tetrapeptide GASR, SEQ ID NO:2), inhibitor of MALT1 proteolytic activity ({code Z}-GASR-aldehyde; reading uncertain; also: printed as Z-GASR-CHO) | completely blocked | efficiently blocked | – | –
A. thaliana serpin (AT1g47710): Arabidopsis thaliana serpin (AT1g47710), indicated as serpin-wt (protein) MDVRESISLQNQVSMNLAKHVITTVSQNSNVIFSPASINVVLSIIAAGSAGATKDQILSFLKFSSTDQLNSFSSEIVSAVLADGSANGGPKLSVANGAWIDKSLSFKPSFKQLLEDSYKAASNQADFQSKAVEVIAEVNSWAEKETNGLITEVLPEGSADSMTKLIFANALYFKGTWNEKFDESLTQEGEFHLLDGNKVTAPFMTSKKKQYVSAYDGFKVLGLPYLQGQDKRQFSMYFYLPDANNGLSDLLDKIVSTPGFLDNHIPRRQVKVREFKIPKFKFSFGFDASNVLKGLGLTSPFSGEEGLTEMVESPEMGKNLCVSNIFHKACIEVNEEGTEAAAASAGVIKLRGLLMEEDEIDFVADHPFLLVVTENITGVVLFIGQVVDPLH | – | – | – | possible, but only at relatively high concentrations
IKLA-mutant: mutant serpin in which the reactive center loop has been replaced by the sequence IKLA (SEQ ID NO:16) (protein) MDVRESISLQNQVSMNLAKHVITTVSQNSNVIFSPASINVVLSIIAAGSAGATKDQILSFLKFSSTDQLNSFSSEIVSAVLADGSANGGPKLSVANGAWIDKSLSFKPSFKQLLEDSYKAASNQADFQSKAVEVIAEVNSWAEKETNGLITEVLPEGSADSMTKLIFANALYFKGTWNEKFDESLTQEGEFHLLDGNKVTAPFMTSKKKQYVSAYDGFKVLGLPYLQGQDKRQFSMYFYLPDANNGLSDLLDKIVSTPGFLDNHIPRRQVKVREFKIPKFKFSFGFDASNVLKGLGLTSPFSGEEGLTEMVESPEMGKNLCVSNIFHKACIEVNEEGTEAAAASAGVIKLAGLLMEEDEIDFVADHPFLLVVTENITGVVLFIGQVVDPLH | – | – | – | performing better than wild type serpin at higher concentrations
